Experimental data: paper doi:10.1101/2025.11.26.690658 (bioRxiv, 2025)
Positions count from the first letter of the chain named. One block for each molecule: values may come before it.

Legend:
[1] = target: McsAZ2-McsB complex (heterotetramer of a McsB dimer and two McsAZ2) (Bacillus subtilis strain 168) (UniProt P37569); assay: cryo-EM structure
[2] = target: the molecule itself; assay: cryo-EM structure
[3] = target: T1, McsB(R194A), the McsB chain of the McsAZ2(R115A)-McsB(R194A) mutant (Bacillus subtilis strain 168, UniProt P37570 1-363, R194A); assay: SEC
T1 sequence: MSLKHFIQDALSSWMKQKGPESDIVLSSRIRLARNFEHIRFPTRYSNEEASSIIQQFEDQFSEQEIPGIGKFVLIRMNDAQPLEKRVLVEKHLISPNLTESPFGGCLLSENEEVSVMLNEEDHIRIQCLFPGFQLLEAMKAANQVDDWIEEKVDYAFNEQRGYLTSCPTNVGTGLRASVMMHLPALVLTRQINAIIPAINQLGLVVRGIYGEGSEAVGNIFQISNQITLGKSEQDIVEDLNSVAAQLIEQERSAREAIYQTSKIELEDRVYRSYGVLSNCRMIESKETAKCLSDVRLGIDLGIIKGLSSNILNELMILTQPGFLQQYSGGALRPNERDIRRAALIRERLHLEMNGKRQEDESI

Molecule: McsAZ2-McsB complex (heterotetramer of a McsB dimer and two McsAZ2) (from UniProt P37569;P37570)
stoichiometry N [1]: 2 tetramers

B1: McsB (B. subtilis protein-arginine kinase subunit), coexpressed with McsAZ2 (enzyme)
chain: T1 sequence with A194R
modifications: phosphoarginine at 194 and 333 (pR194, pR333)
stoichiometry N [2]: 2

More lines, now with the values ahead:

binding result [3]: binds
B2: CtsR (B. subtilis transcriptional repressor), full length (natural protein)
chain: MGHNISDIIEQYLKRVLDQNGKEILEIKRSEIADKFQCVPSQINYVINTRFTSERGYIVESKRGGGGYIRIIKIKMNNEVVLINNIISQINTHLSQAASDDIILRLLEDKVISEREAKMMVSVMDRSVLHIDLPERDELRARMMKAMLTSLKLK

binding result [3]: binds
B3: CtsRCTD (C-terminal domain of CtsR, residues 75–154) (domain or fragment)
chain: KMNNEVVLINNIISQINTHLSQAASDDIILRLLEDKVISEREAKMMVSVMDRSVLHIDLPERDELRARMMKAMLTSLKLK
